From patent US20050142566A1 (CHILDREN S MEDICAL CENTER, published 2005)

Biological target: T1, CatSper1 (UniProt Q91ZR5 1-686)
T1 sequence (looked up): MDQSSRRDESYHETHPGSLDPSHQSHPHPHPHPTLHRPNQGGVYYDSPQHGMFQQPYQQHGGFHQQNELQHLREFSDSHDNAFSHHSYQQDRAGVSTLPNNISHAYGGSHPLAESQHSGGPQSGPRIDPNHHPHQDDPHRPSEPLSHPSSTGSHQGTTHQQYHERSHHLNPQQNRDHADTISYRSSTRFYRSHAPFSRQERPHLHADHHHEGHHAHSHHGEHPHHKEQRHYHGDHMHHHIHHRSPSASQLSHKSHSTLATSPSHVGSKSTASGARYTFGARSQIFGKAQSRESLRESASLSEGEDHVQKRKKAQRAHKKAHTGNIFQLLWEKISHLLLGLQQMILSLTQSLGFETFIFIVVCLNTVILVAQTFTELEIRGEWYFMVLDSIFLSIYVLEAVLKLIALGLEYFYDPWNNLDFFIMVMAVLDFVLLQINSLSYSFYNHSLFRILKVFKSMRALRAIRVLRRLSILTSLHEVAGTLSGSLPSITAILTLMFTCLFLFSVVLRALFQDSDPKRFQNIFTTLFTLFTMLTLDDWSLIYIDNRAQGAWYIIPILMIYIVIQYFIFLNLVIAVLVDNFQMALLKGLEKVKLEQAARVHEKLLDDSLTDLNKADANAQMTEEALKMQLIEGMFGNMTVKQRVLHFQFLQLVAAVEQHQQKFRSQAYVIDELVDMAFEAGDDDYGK
Assay: co-immunoprecipitation from testis detergent extracts, immunoblot with CatSper1 antibody
Method: For immunoprecipitation, samples were extracted with TBS (20 mM Tris-HCl, 150 mM NaCl, pH 7.4) containing either 1% TX-100 or 1% Zwittergent 3-14 for at least 4 hours at 4° C. The extract was centrifuged at 100,000 ×g for 30 min, and the resultant supernatant solution was incubated for 2 hours with preimmune IgG covalently bound to Protein A agarose (Seize X™, Pierce Chemical Co., Rockford, Ill.). The nonbound fraction was recovered and incubated with peptide reactive antibody (±1.5 μM peptide preincubation)/Protein A agarose overnight with rocking at 4° C. The resulting immune complexes were washed 5 times. SDS-polyacrylamide electrophoresis was according to Laemmli (1970), Nature 227:680-5. Electrophoretically separated samples were transferred to nitrocellulose membranes according to Towbin et al. (1979), Proc. Natl. Acad. Sci. USA 76:4350-4, at 50V for 2 hours, 4° C. Immnunoblots were probed in TBST/2:5% nonfat milk with CatSper2 antibody (1:5000) or CatSper1 (1:2000) antibody. After incubation with, the primary antibody, the blots were rinsed once with TBST/2.5% nonfat milk and washed with TBST (4 changes over 30 min). Blots were then incubated with secondary goat anti-rabbit IgG-HRP conjugate for 1 hour, washed with TBST (3 changes over 30 min), rinsed with TBS (3 times), and the signal detected with chemiluminescence (Pierce Chemical Co., Rockford, Ill.). […]

binding result: no binding
B1: murine CatSper2 protein (SEQ ID NO: 6) (other)
chain: MAQEQGHFQLLRADAIRSKLIDTFSLIEHLQGLSQAVPRHTLREILDPAYQQKLMSGDQEQLVRFSIKPRRMGHITHSRRLLSRLRVRCSRMPPLSLWAGWVLDSSVFSKFIISLIFLNTFVLMVEIELMESTNTALWPVKLALEVADWFILLSFIVEILLMWLASFSLFWKDAWNVFDFFVTLLSLLPELVVLLGVPAHSVWLQLLRVCRVLRSLKLFARFRQIKVILLALVRALKSMTFLLMLLLIFFYIFAVTGVYFFREYSRSTIEGLEYNMFFSDLLNSLVTVFILFTLDHWYAVLQNIWKVPESSRVFSSIYVILWLLLGSIIFRNIIIAMMVTNFQNIRSELSEEMSHLEVQYKADMFKQQIIQRRQHSESLRGTSLGKVSEDIIETSDASDDDDDDDDDDDDDDDDDDDKSDATESDGEESDSENSESENSESEKIDPEKDYAKKSYPEKSHPEKSYPEKSHPEKSYPEKSHPEKSYDEQAEAEKVKEESKEKAYPVSHSISSHGSIAADTAFLENLDWETLVHENLPGLMDMDQDDRIVWPRDSLFRYFELLEKLQYNLEERKKLQEFAVQALMSFEDK
notes: also called mouse CatSper2; 68,000 Mr protein
